Laboratory results: patent US11174311B2, “Antibody against trimeric TNFα complex” (UCB BIOPHARMA SRL, priority 2016, dated 2021)
Entries after “also recorded” stand apart in the source; their conditions may differ.

Key:
[1] = target: T1, soluble form of TNFα (Homo sapiens, UniProt P01375); assay: SPR on Biacore 4000 against immobilised soluble TNFα; format: binding; conditions: concentration of up to 100 μM
T1 construct: the immobilised soluble form of CD40L and the soluble form of TNFα
Experimental: In another experiment, BIO8898 was tested against the immobilised soluble form of CD40L and the soluble form of TNFα by SPR on a Biacore 4000 machine.

[2] = target: T2, Human TNFα (Homo sapiens, UniProt P01375); assay: Single cycle kinetics by surface plasmon resonance; format: binding; set-up: made in house
Experimental: For single cycle kinetics profiling of compound (1) to either directly immobilised TNFα or CA1974-captured TNFα surface plasmon resonance was performed at 25° C. using a BIAcore T200 (GE Healthcare). Human TNFα was tethered onto flow-channel (Fc)2 (2000 RU). CA1974 IgG (>10,000 response units) was tethered onto Fc3,4 and Fc1 blank immobilisation on a CMS Sensor Chip (GE Healthcare) via amine coupling chemistry. The surface was allowed to stabilise in HBS-P buffer (10 mM HEPES, pH 7.4, 0.15 M NaCl, 0.0005% (v/v) surfactant P20-GE Healthcare)+5% DMSO was used as the running buffer. Human TNFα was flowed over Fc4 to a capture level of ˜2,000 RU. Compound (1) was flowed over all four flow cells in series (1.875 μM, 3.75 μM, 7.5 μM and 30 μM) at 100 μl/min. Double referenced background-subtracted binding curves were produced using the T200 Evaluation software (version 1.0) following standard procedures.
Target sequence in this assay (P01375 77-233 limits assumed): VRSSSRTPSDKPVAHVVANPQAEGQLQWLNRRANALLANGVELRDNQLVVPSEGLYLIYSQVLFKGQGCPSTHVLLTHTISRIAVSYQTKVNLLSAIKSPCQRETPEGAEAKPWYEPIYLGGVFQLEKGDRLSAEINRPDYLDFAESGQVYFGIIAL

[3] = target: human TNFα complexed with compound (1) (Homo sapiens, UniProt P01375); assay: Size exclusion chromatography (HPLC) of mouse Fab with TNFα-compound complex; format: binding
Chain of human TNFα complexed with compound (1) (P01375 77-233 limits assumed, one chain of several): as the sequence (P01375 77-233 limits assumed) above

[4] = test system: membrane-bound TNFα; assay: FACS assay, engineered NS0 cell line overexpressing membrane TNFα; format: cell-based; conditions: Fab fragments
Chain of membrane-bound TNFα (P01375 90-233 limits assumed): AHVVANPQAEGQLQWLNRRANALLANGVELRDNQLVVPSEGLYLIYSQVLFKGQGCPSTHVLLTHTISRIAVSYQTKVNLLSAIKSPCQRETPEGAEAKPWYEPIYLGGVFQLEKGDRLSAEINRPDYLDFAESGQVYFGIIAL
Experimental: An engineered NS0 cell line, which overexpresses membrane TNFα, due to knock-out of the TACE cleavage site was incubated with 0.001-10 μM compound (1) or 0.1% DMSO for 1 h at 37° C. Cells were washed, fixed and stained with antibody Fab fragments at 0.01 or 0.1 μg/ml for 1 hour on ice. (Secondary antibody was anti-mouse Fab-DyeLight488 from Jackson ImmunoResearch).

[5] = target: T2, Human TNFα; assay: FACS assay, HEK JumpIn cells overexpressing TNF-RI, receptor-bound TNFα; format: cell-based; set-up: host or cells: HEK JumpIn cells (express the partner TNF-RI only); conditions: antibody at 1 and 10 μg/ml
Experimental: Recombinant antibodies were also tested for binding to compound-distorted TNFα in a FACS assay using human embryonic kidney (HEK) JumpIn cells, which overexpress TNF-RI after induction with doxycycline at 1 μg/ml for 2.5 hours. HEK cells were trypsinised and incubated for 2 h in medium to allow recovery of digested TNFRI levels. Human TNFα at 2 μg/mL was pre-incubated with 40 μM compound (1) or 0.4% DMSO for 1 h at 37° C. The pre-incubation mix was added to the cells for 1 h on ice (dilution 1:4, final concentrations: 0.5 μg/mL human-TNFα+/−[…] or 0.1% DMSO). […] (Secondary antibody: anti-mouse-Alexa488), before analysis for receptor-bound TNFα.
Target sequence in this assay (P01375 77-233 limits assumed): as the sequence (P01375 77-233 limits assumed) above
Target sequence in this assay (P19438 30-455 partner): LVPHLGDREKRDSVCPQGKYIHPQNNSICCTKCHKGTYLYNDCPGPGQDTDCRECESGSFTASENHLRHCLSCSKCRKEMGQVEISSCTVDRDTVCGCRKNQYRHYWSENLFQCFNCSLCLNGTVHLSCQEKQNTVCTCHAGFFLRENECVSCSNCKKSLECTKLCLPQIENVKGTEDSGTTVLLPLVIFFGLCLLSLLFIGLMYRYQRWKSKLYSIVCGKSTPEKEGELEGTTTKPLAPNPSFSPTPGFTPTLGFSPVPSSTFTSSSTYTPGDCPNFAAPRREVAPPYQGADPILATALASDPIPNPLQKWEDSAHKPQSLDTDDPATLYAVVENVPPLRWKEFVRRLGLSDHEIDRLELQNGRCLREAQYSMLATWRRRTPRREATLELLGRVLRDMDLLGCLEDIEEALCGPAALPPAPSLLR

T1 sequence (P01375 77-233 limits assumed): as the sequence (P01375 77-233 limits assumed) above

**Q.** How did the “binding to TNFα” value [1] turn out when `O=C(NCc1cccc(-c2ccccc2)c1)c1cc(-c2cc(C(=O)NC(C(=O)O)C3CCCCC3)nc(C(=O)N3CCCC3CN3CCCC3)c2)cc(C(=O)N2CCCC2CN2CCCC2)n1` (centres unmarked) [BIO8898] was run?
**A.** not to bind; also recorded: no binding

**Q.** With `Cc1ccc(C)c(Cn2c(C(O)c3ccncc3)nc3ccc(-c4cnn(C)c4)cc32)c1` (centres unmarked) [compound (1)] as the molecule, how does the binding kinetics profile ([2]; TNFα captured via antibody CA1974) read?
**A.** fast on-fast off

**Q.** What about the binding kinetics profile ([2]; directly immobilised apo-TNF) of the same molecule?
**A.** slow on-slow off

B1: CA185_01979: rat-derived conformation-selective antibody to TNFα-compound complex, LCVR SEQ ID NO: 22, HCVR SEQ ID NO: 23; used as mouse IgG or mouse Fab (antibody, V domains shown)
VH: EVHLVESGPGLVKPSQSLSLTCSVTGYSITNSYWDWIRKFPGNKMEWMGYINYSGSTGYNPSLKSRISISRDTSNNQFFLQLNSITTEDTATYYCARGTYGYNAYHFDYWGRGVMVTVSS
VL: DIQMTQSPASLSASLEEIVTITCQASQDIGNWLSWYQQKPGKSPHLLIYGTTSLADGVPSRFSGSRSGTQYSLKISGLQVADIGIYVCLQAYSTPFTFGSGTKLEIK
modifications: HCVR of 1979; LCVR of 1979
notes: used as mouse IgG or mouse Fab
**Q.** Which results are given for B1?
**A.** stoichiometry Fab : TNFα trimer [3]: 1 Fab: 1 TNFα trimer; staining with the DMSO controls ([4]; cells incubated with 0.1% DMSO): no staining; staining / recognition of membrane TNF ([4]; cells incubated with compound (1)): only recognise TNF which has been pre-incubated with compound (1); staining with the DMSO control ([5]; TNFα pre-incubated with DMSO): no staining; staining / recognition of receptor-bound TNFα ([5]; TNFα pre-incubated with compound (1)): only recognise TNFα which has been pre-incubated with compound (1)
